Target: MerA variant G415I (P. aeruginosa) (UniProt P00392)
Assay: SEC-MALS

## MerA variant G415I (from UniProt P00392 96-561) (enzyme)
  stoichiometry N: 2

From PMC11200239
